Measurements taken from PMC10215317, “The Rhodanese PspE Converts Thiosulfate to Cellular Sulfane Sulfur in Escherichia coli” (Antioxidants, 2023).

B1: GlpE (Escherichia coli K-12) (protein)
chain: MDQFECINVADAHQKLQEKEAVLVDIRDPQSFAMGHAVQAFHLTNDTLGAFMRDNDFDTPVMVMCYHGNSSKGAAQYLLQQGYDVVYSIDGGFEAWQRQFPAEVAYGA
notes: intact gene (324 bp), C-terminal His6 tag kept, pET30a, E. coli BL21(DE3); Ni-NTA and Superdex 200
B2: ΔNS-PspE (Escherichia coli K-12) (protein)
chain: AEHWIDVRVPEQYQQEHVQGAINIPLKEVKERIATAVPDKNDTVKVYCNAGRQSGQAKEILSEMGYTHVENAGGLKDIAMPKVKG
notes: Ni-NTA and Superdex 200

Substrate: O=S(O)(O)=S
Test: purified protein
Format: biochemical, Escherichia coli
Conditions: 100 mM GSH fixed, 0.4 mM lead acetate, 100 mM HEPES pH 7.4, 37 °C

| Protein | Km [mM] | kcat [s⁻¹] | kcat/Km [M⁻¹ s⁻¹] |
| --- | --- | --- | --- |
| B1 | 33.6 ± 7.0 | 0.02 | 0.7 |
| B2 | 7.8 ± 1.6 | 0.04 | 4.8 |
